Results on 5 substances are retold here after patent US7208293.

Assay [1] addresses anhydro-trypsin (UniProt P00760). The assay is described as follows: acid elution from anhydrotrypsin beads, experiment 1.
Assay [2] concerns the target trypsin (UniProt P00760). The experiment in a line: elution from trypsin beads.
Assay [3] deals with anhydro-trypsin (UniProt P00760). The experiment in a line: elution from anhydrotrypsin beads.
Assay [4] has the same target. The experiment in a line: loss of titer on anhydrotrypsin beads.
Assay [5] deals with human neutrophil elastase (human) (UniProt P08246). The experiment in a line: acid elution from HNE beads.
Chain of human neutrophil elastase (human) (P08246 30-247 limits assumed): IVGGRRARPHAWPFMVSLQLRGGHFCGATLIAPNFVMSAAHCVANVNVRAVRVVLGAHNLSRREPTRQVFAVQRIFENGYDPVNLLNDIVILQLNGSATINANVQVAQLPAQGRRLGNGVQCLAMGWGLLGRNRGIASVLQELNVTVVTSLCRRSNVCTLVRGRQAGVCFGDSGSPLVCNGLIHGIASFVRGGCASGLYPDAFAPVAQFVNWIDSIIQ
Assay [6] concerns the target trypsin (UniProt P00760). The experiment in a line: acid elution from trypsin beads.
For assay [7], the target named is anhydro-trypsin (UniProt P00760). The assay is described as follows: acid elution from anhydrotrypsin beads, experiment 2.
Assay [8] addresses human neutrophil elastase (human) (UniProt P08246). The assay is described as follows: HNE beads, pH 5.5 elution.
The target is the same in assay [9]. The assay is described as follows: HNE beads, abbreviated fractionation, SUM of pH fractions.
Assay [10] shares this target. The experiment in a line: HNE beads, abbreviated fractionation, pH 7.0.
Assay [11] has the same target. The assay is described as follows: HNE beads, abbreviated fractionation, WASH.
Assay [12] deals with human Cathepsin G (human) (UniProt P08311). The experiment in a line: Cat-G beads, pH 4.0 elution.
Chain of human Cathepsin G (human) (P08311 21-244 limits assumed): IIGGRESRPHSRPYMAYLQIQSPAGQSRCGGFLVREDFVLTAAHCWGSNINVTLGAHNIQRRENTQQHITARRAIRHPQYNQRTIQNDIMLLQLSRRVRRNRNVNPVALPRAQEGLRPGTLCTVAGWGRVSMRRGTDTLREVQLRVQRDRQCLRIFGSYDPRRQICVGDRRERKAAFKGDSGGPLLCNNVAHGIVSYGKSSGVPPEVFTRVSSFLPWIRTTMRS
The target is the same in assay [13]. The experiment in a line: Cat-G beads, pH 2.0 elution.
The target in assay [14] is human neutrophil elastase (human) (UniProt P08246). The assay is described as follows: HNE beads, pH 4.5 elution.
The target is the same in assay [15]. The assay is described as follows: HNE beads, pH 2.0 elution.
The target in assay [16] is human Cathepsin G (human) (UniProt P08311). The assay is described as follows: Cat-G beads, pH 5.5 elution.
Assay [17] addresses human neutrophil elastase (human) (UniProt P08246). The assay is described as follows: HNE beads, abbreviated fractionation, pH 2.0.
For assay [18] the target is unchanged. The assay is described as follows: HNE beads, pH 7.0 elution.
The target in assay [19] is human Cathepsin G (human) (UniProt P08311). The experiment in a line: Cat-G beads, final TBS-TWEEN wash.
Assay [20] has the same target. The assay is described as follows: Cat-G beads, pH 4.5 elution.
Assay [21] concerns the target human neutrophil elastase (human) (UniProt P08246). The assay is described as follows: HNE beads, abbreviated fractionation, pH 3.5.
For assay [22] the target is unchanged. The experiment in a line: HNE beads, pH 3.0 elution.
In assay [23] the target is human Cathepsin G (human) (UniProt P08311). The assay is described as follows: Cat-G beads, pH 6.0 elution.
Assay [24] concerns the target human neutrophil elastase (human) (UniProt P08246). The experiment in a line: HNE beads, pH 4.0 elution.
The target of assay [25] is human Cathepsin G (human) (UniProt P08311). The experiment in a line: Cat-G beads, pH 5.0 elution.
The target is the same in assay [26]. The assay is described as follows: Cat-G beads, pH 7.0 elution.
Assay [27] concerns the target human neutrophil elastase (human) (UniProt P08246). The experiment in a line: HNE beads, SUM of all pH elution fractions.
Assay [28] has as its target human Cathepsin G (human) (UniProt P08311). The experiment in a line: Cat-G beads, pH 3.5 elution.
The target of assay [29] is human neutrophil elastase (human) (UniProt P08246). The experiment in a line: HNE beads, pH 6.0 elution.
The target of assay [30] is human Cathepsin G (human) (UniProt P08311). The experiment in a line: Cat-G beads, pH 3.0 elution.
The target is the same in assay [31]. The experiment in a line: Cat-G beads, SUM of all pH elution fractions.
Assay [32] has the same target. The experiment in a line: Cat-G beads, pH 2.5 elution.
The target of assay [33] is human neutrophil elastase (human) (UniProt P08246). The experiment in a line: HNE beads, final TBS-TWEEN wash.
Assay [34] shares this target. The assay is described as follows: HNE beads, pH 2.5 elution.
The target is the same in assay [35]. The experiment in a line: HNE beads, pH 5.0 elution.
The target is the same in assay [36]. The assay is described as follows: HNE beads, pH 3.5 elution.
The target in assay [37] is trypsin (UniProt P00760). The assay is described as follows: immobilized trypsin, CBS buffer pH 6.5, pH 2.2 elution.
Chain of trypsin (P00760 24-246): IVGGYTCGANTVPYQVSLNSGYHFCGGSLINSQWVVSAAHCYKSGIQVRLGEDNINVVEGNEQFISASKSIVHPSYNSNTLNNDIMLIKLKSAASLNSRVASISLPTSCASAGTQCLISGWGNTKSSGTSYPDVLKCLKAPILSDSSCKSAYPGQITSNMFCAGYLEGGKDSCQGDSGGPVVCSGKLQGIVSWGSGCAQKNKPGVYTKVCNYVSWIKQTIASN
For assay [38], the target named is trypsin (UniProt P00760). The experiment in a line: immobilized trypsin, TBS buffer pH 7.5, pH 2.2 elution.
The target of assay [39] is M13 MB48 phage (BPTI:VIII fusion display phage) (bovine BPTI fused to phage M13 gene VIII protein). The experiment in a line: strain M13MB48 batch 5; NRS IgG and protein A-agarose.
For assay [40] the target is unchanged. The experiment in a line: strain M13MB48 batch 4; NRS IgG and protein A-agarose.
Assay [41] shares this target. The assay is described as follows: strain M13MB48 batch 4; NRS IgG added.
The target is the same in assay [42]. The assay is described as follows: strain M13MB48 batch 5; NRS IgG added.
Assay [43] deals with M13 mp18 phage. The experiment in a line: strain M13MP18; IgG from normal rabbit serum added.
Assay [44] has as its target M13 mp18 phage. The experiment in a line: strain M13MP18; NRS IgG and protein A-agarose.
Assay [45] deals with M13 MB48 phage (BPTI:VIII fusion display phage) (bovine BPTI fused to phage M13 gene VIII protein). The assay is described as follows: strain M13MB48 batch 5; protein A-agarose alone.

Chain of anhydro-trypsin (P00760 24-246): as above

Consider M13 mp18 phage, for which the eluted phage, percentage of input in the assay with anhydro-trypsin [1] came out at 0.2%; with trypsin [2], 0.00023%; with anhydro-trypsin [3], 0.1%; in [5], 0.0003%; with trypsin [6], 0.0005%; with anhydro-trypsin [7], 0.3%. Besides, in the assay with anhydro-trypsin [1], the relative to M13MP18 amounted to 1. Further, the relative binding (to M13MP18) (with trypsin [2]; with anhydro-trypsin [3]; in assay [5]; with trypsin [6]) was 1 each time. The substance further showed a pfu post incubation, percentage of input with anhydro-trypsin [4] of 121%. For the same substance, the relative to M13mp18 with anhydro-trypsin [7] was 1.

For the substance “MA-ITI phage (ITI-D1-III fusion display phage) (from UniProt P02760 22-77)”, the fraction of input in assay [8] worked out at 4.7e-06; in assay [9], 1.4e-05; in [10] it was 1e-05; in assay [11], 1e-05; in assay [12], 9.6e-07; in assay [13] it was 7e-07. The fraction of input in assay [14] was determined as 3.5e-07; in assay [15], 5e-08; in assay [16], 2.6e-06; in [17], 1e-06; in assay [18] it was 4.7e-06; in [19] it was 1.5e-05. For the same substance, the fraction of input in assay [20] was 1.5e-06; in [21], 3e-06; in [22], 8.5e-08; in assay [23] it was 5e-06; in assay [24], 2.1e-07; in assay [25], 2.4e-06. Moreover, the fraction of input in assay [26] amounted to 1.3e-05; in assay [27], 2e-05; in assay [28], 9.6e-07; in [29], 2.9e-06; in assay [30] it was 7.8e-07; in assay [31], 3e-05. Besides, the fraction of input in [32] is 5.9e-07; in [33], 5.3e-06; in assay [34], 4.1e-08; in assay [35], 9.1e-07; in assay [36], 1.4e-07. In addition, the total pfu in sample in assay [8] was found to be 1.6e+06 pfu; in assay [12], 440000 pfu; in assay [13] it was 320000 pfu; in assay [14], 120000 pfu; in [15], 17000 pfu; in [16], 1.2e+06 pfu. Moreover, the total pfu in sample stood at 1.6e+06 pfu in [18]; 7.1e+06 pfu in assay [19]; 670000 pfu in assay [20]; 29000 pfu in assay [22]; 2.3e+06 pfu in [23]; 72000 pfu in [24]. Also, the total pfu in sample in assay [25] stood at 1.1e+06 pfu; in assay [26] it was 6.1e+06 pfu; in assay [27] it was 5.7e+06 pfu; in assay [28] it was 440000 pfu; in assay [29] it was 1e+06 pfu; in [30] it was 360000 pfu. In addition, the total pfu in sample in assay [31] was 1.4e+07 pfu; in assay [32], 270000 pfu; in assay [33], 1.8e+06 pfu; in assay [34] it was 14000 pfu; in assay [35], 310000 pfu; in assay [36] it was 49000 pfu.

For the substance MK phage, the percent of input phage recovered in the assay with trypsin [37] came out at 0.00028%; in the assay with trypsin [38], 0.00034%.

As to “normal rabbit serum / IgG purified from normal rabbit serum (antibody)”, the percentage of input phage (pfu) remaining in [39] turned out to be 110%; in [40] it was 121%; in assay [41], 125%; in assay [42], 105%; with M13 mp18 phage [43] it was 104%; with M13 mp18 phage [44] it was 88%.

In the case of protein A (agarose beads), in [45], the percentage of input phage (pfu) remaining worked out at 58%.
